To fix the notation:
T1: HbA1c-type αF8P (α-fructosyl-valyl-histidyl-leucyl-threonyl-prolyl-glutamyl-glutamyl-lysine)
T1 chain: VHLTPEEK

T2: HbS1c-type αF8P
T2 chain: VHLTPVEK

T3: HbC1c-type αF8P
T3 chain: VHLTPKEK

B1: glycated hexapeptide oxidase derived from Emericella nidulans (En42FX) (protein)
chain: MAPRANTKIIVVGGGGTMGSSTALHLLRAGYTPSNITVLDTYPIPSAQSAGYDLNKIFGISGANKHDLQLSLEAFDMWKNDPLFKPFFHNVGQMDVSSTEEGIKRLRRRYQSLLRAGIGLEKTNFLLESEDEILAKAPHFTREQIKGWKGLFCGDGGWLAAAKAINAIGQFLKEQGVKFGFGEAGTFKKPLFADADEKTCIGVETVDGTKYYADKVVLAAGAWSSTLVDLEEQCVSKAWVFAHIQLTPAEAAAYKNTPVIYDGDYGFFIEPDENGIIKVCDEFPGFTHFKMHQPYGSPVPKLISVPRSHAKHPTDTYPHASEVTIKKAINRFLPRFNDKELFNRAMCWCTDTADSNLLVCEHPRWKGFYLATGDSGHSFKLLPNIGKHVVELLEGRLESVFKDAWRWRPGSGDALKSRRAAPAKDLADMPGWRNEAKM
B2: En42FX R105Q (protein)
chain: B1 chain with R105Q
B3: En42FX R105A (protein)
chain: B1 chain with R105A
B4: En42FX R105E (protein)
chain: B1 chain with R105E
B5: En42FX R108S (protein)
chain: B1 chain with R108S
B6: En42FX R105N (protein)
chain: B1 chain with R105N
B7: En42FX R108A (protein)
chain: B1 chain with R108A
B8: CFP-T7-H40-3M K113S (protein)
chain: MTSNRADTRVIVVGGGGTIGSSTALHLVRSGYAPANITVLDTFEIPSAQSAGHDLNKIMGIDHGNKVNLQMSLEARQMWKEDELFQPFFHNTGRMDCESTPKGIEKLKKYYQSLHDAGAGLEKTHAWLDNEDEILSKMPLLQRDQIQGWKAIWSQDGGWLAAAKAINAIGQFLKERGVKFGFGGAGSFKQPLFDDEGTTCIGVETADGTKYYADKVVLAAGAWSPTLVDLEDQCCSKAWVYAHIQLTPEEAAEYKGVPVVYNSEYGFFFEPDEFGVIKVCNEFPGFSRFKEHQPYGAPSPKRISVPRSHAKHPTDTYPDASEVSIKKAIATFLPRFQDKELFNRALCWCTDTADSTLLMCEHPKWKNFILATGDSGHSFKILPNVGKYVVELIEGRLPEEMAYQWRWRPGGDALKSRRAAPPKDLADMPGWKHDPKL
B9: CFP-T7-H40-3M K113D (protein)
chain: B8 chain with S113D
B10: CFP-T7-H40-3M K113N (protein)
chain: B8 chain with S113N
B11: CFP-T7-H40-3M K113T (protein)
chain: B8 chain with S113T
B12: CFP-T7-H40-3M K113Q (protein)
chain: B8 chain with S113Q

Positions count from the first letter of the chain named. Names and notes keep the numbering of the source.

The target of one data set is T1, HbA1c-type αF8P ….
As for B1, the relative activity on substrate (reference, designated as 100%) was 100%.
B2 gave a relative activity on substrate (reference, designated as 100%) of 100%.
Consider B3, for which the relative activity on substrate (reference, designated as 100%) stood at 100%.
Same read-out and setting: the figure for B4 is 100%; for B5 it is 100%; for B6 it is 100%.
Still for that read-out and setting: the figure for B7 is 100%.
Consider B8, for which the relative activity on substrate (reference, designated as 100%) turned out to be 100% and the “specific activity on substrate” value was “at least 20 mU/mg”.
As to B9, the relative activity on substrate (reference, designated as 100%) worked out at 100% and the “specific activity on substrate” value is “at least 20 mU/mg”.
In the case of B10, the relative activity on substrate (reference, designated as 100%) turned out to be 100% and the “specific activity on substrate” value is listed as “at least 20 mU/mg”.
The corresponding values for B11 are 100% and “at least 20 mU/mg”.
For B12, the relative activity on substrate (reference, designated as 100%) is 100% and the “specific activity on substrate” value is “at least 20 mU/mg”.

For the next data set, the target named is T2, HbS1c-type αF8P.
For the protein B1, the relative activity on substrate (activity on HbA1c-type αF8P = 100%) worked out at 41%.
Turning to B2, the relative activity on substrate (activity on HbA1c-type αF8P = 100%) turned out to be 70%.
Same read-out and setting: to B3 belongs 70%; to B4, 69%.
Still for that read-out and setting: the figure for B5 is 61%; for B6 it is 95%.
For the protein B7, the relative activity on substrate (activity on HbA1c-type αF8P = 100%) was 70%.
On to B8, for which the “relative activity (HbS1c/HbA1c), fold over H40-3M before modification” value is “improved by about 2.1 to 3.3 times”; the relative activity on substrate (activity on HbA1c-type αF8P = 100%) was 130%; the “specific activity on substrate” value is recorded as “at least 20 mU/mg”.
With B9, the relative activity on substrate (activity on HbA1c-type αF8P = 100%) came to 93% and the “specific activity on substrate” value is “at least 20 mU/mg”.
As for B10, the relative activity on substrate (activity on HbA1c-type αF8P = 100%) came out at 95% and the “specific activity on substrate” value was “at least 20 mU/mg”.
The corresponding values for B11 are 104% and “at least 20 mU/mg”.
Take B12: the relative activity on substrate (activity on HbA1c-type αF8P = 100%) came to 106% and the “specific activity on substrate” value was “at least 20 mU/mg”.

The target of the next data set is T3, HbC1c-type αF8P.
On to B1, for which the relative activity on substrate (activity on HbA1c-type αF8P = 100%) was found to be 8%.
Still for that read-out and setting: to B2 belongs 25%; to B3, 33%.
The same measure, in the same setting: to B4 belongs 31%.
Still for that read-out and setting: to B5 belongs 10%; to B6, 11%; to B7, 57%.
In the case of B8, the “relative activity (HbC1c/HbA1c), fold over H40-3M before modification” value is “improved by about 2.8 to 9.4 times”; the relative activity on substrate (activity on HbA1c-type αF8P = 100%) was found to be 103%; the “specific activity on substrate” value is on record as “at least 20 mU/mg”.
With B9, the relative activity on substrate (activity on HbA1c-type αF8P = 100%) was found to be 39% and the “specific activity on substrate” value is reported as “at least 20 mU/mg”.
The corresponding values for B10 are 42% and “at least 20 mU/mg”.
For B11, in that order: 40% and “at least 20 mU/mg”.
Regarding B12, the relative activity on substrate (activity on HbA1c-type αF8P = 100%) stood at 50% and the “specific activity on substrate” value was “at least 20 mU/mg”.

(Values after patent publication US20200283741.)
